These results are taken from paper PMC9318811, “PbUGT72AJ2-Mediated Glycosylation Plays an Important Role in Lignin Formation and Stone Cell Development in Pears (Pyrus bretschneideri)” (International Journal of Molecular Sciences, 2022).

Substrate in data set [1]: COc1cc(/C=C/CO)cc(OC)c1O
Description: HPLC of glucoside product, double reciprocal plot. The data set is classed as biochemical, Pyrus x bretschneideri. Particulars: 2.5 mM UDP-glucose, 50 mM MgSO4, 200 mM KCl, 100 mM PBS pH 7.2–7.4, 35 °C, 0.1% β-mercaptoethanol, pH 7.0. An excerpt:
(§1) HPLC of glucoside product, double reciprocal plot on PbUGT72AJ2

Substrate in data set [2]: COc1cc(/C=C/CO)ccc1O
Description: HPLC of glucoside product, double reciprocal plot. Format: biochemical, Pyrus x bretschneideri. Particulars: 2.5 mM UDP-glucose, 50 mM MgSO4, 200 mM KCl, 100 mM PBS pH 7.2–7.4, 35 °C, 0.1% β-mercaptoethanol, pH 7.0.
From the text: as §1

B1: PbUGT72AJ2 (Pyrus x bretschneideri) (protein)
chain: MSSKPHAAILCSPGLGHLIPSLELAKRLVTHRNFTVTIFAIPSPTSKTESELLKAAATPKFFDIIELPPPDISGCVGPNVAVVTLLAVMMREVRPAFRSAILGMEYSLRPTVLIVDLFSTESLSIGDELGIPKYVYVASTAWLVALTVYVPVFDREMEGEYVDQTEPLRIPGCKPVQPDDVVDPMLDRTDQQYLEYVRIGTNFPKSDGILMNTWEDLEHKTIDALRDEGLLGRVAKVPIYPIGPLTRSVQSAGSTSTGLREEGLFNWLDKQPCESVIFVSLGSGGTVSFEQMTEMAWGLELSKQRFIWVVRPPAKSADAAYFTSGNRDDDPSTYLPKGFLTRTHDVGLVVHLWAPQVDILSHPSIGGFWSHCGWNSSLESITNEVPMIVWPLHAEQRINATMLTEELGVAVRSKVLPLKKVVDREEIKEMVRKIMVDKDGQAIRGRVKELKLSAAKAWSVGGSSYNAISQISSGNQRKC
With B1, in data set [1], the Km amounted to 144.13 ± 22.31 µM, the Vmax is 3.32 µM/min/mg, the kcat worked out at 0.44 ± 0.03 s⁻¹ and the kcat/Km worked out at 3050 ± 250 M⁻¹ s⁻¹. For the same protein, in data set [2], the Km is 117.83 ± 7.94 µM, the Vmax came out at 4.23 µM/min/mg, the kcat was 0.55 ± 0.02 s⁻¹ and the kcat/Km turned out to be 4670 ± 130 M⁻¹ s⁻¹.

In general, Km refers to the substrate concentration at which the rate is half of its maximum. For orientation: Vmax means the rate approached at saturating substrate. Broadly, the kcat is the number of substrate molecules converted per active site and unit of time at saturation. In general, kcat/Km refers to the turnover number divided by the Michaelis constant.
